From the nanobody polyreactivity screen of Harvey et al. (2022)

Experiment: yeast display, Sf9 membrane polyspecificity reagent, FACS + sequencing; frameworks hold sequencing errors
Summary of the method: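 Sorting gates, low and high (top ~1%), were placed on anti-HA fluorescence to track expression and on streptavidin fluorescence to track reagent binding. A clone's polyreactivity label is taken from the gate it came out of. The reagent was 10% biotinylated, detergent-solubilized Sf9 membrane, applied for 1 hour at 4 °C to galactose-induced yeast display cells.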
In the case of “QVQLVESGGGLVQAGGSLRLSCAASGSTMAPYAMGWYRQAPGTERELVASINWGGTTTYYADSVKGRFTISRDNAKNTVYLQMNSLKPEDTAVYYCAALGLRWGRSGYYYEYYYWGQGTQVTVSS”, the “polyreactivity (PSR sort gate)” value is reported as “high polyreactivity”.
In the case of “QVQLVESGGGLVQAGGSLRLSCAASGSTPDGYGMGWYRQAPGKERELVAVITIGGGRTYYADSVKGRFTISRDNAKNTVYLQMNSLKAVDTAVYYCAAKGWRRYYIGDYWGQGTQVTVSS”, the “polyreactivity (PSR sort gate)” value is reported as “high polyreactivity”.
In the case of “QVQLVESGGGLVQAGGSLRLSCAASGSTQVYYDMGWYRQAPAKERELVATITGTDSTYYADSVKGRFTISRDNAKNTVYLQMNSLKPEDTADCAADRAASRPDYDYWGEGTQVTVSS”, the “polyreactivity (PSR sort gate)” value is reported as “low polyreactivity”.
With “QVQLVESGGGLVQAGGSLRLSCAASGSTRRYVMAWYRQAPGKEMELVAAISYSGGSTYYADSVKGRFTISRDNAKNTVYLQMNSLKPEETAVYYCAADGYSGQYGGHMGYWGQGTQVTVSS” the “polyreactivity (PSR sort gate)” value was “high polyreactivity”.
In the case of “QVQLVESGGGLVQAGGSLRLSCAASGSTRRYVMGWYRQAPWKERELVAAISYSGGSTYYADSVKGRFTISRDNAKNTVYLQMNSLKPEDTAVYYCAADGYSGQYGGHMGYWGQGTQVTVSS”, the “polyreactivity (PSR sort gate)” value is reported as “high polyreactivity”.
With “QVQLVESGGGLVQAGGSLRLSCAASGSTSAAYAMGWYRQAPGKERELVAAISKRGGSTYYADSVKGRFTISRDNAKNTVYLQMNSLKPEDTAVYYCNKYHFPGYWSRFDYWGQGTQVTVSS” the “polyreactivity (PSR sort gate)” value was “high polyreactivity”.
With “QVQLVESGGGLVQAGGSLRLSCAASGSTSARYAMGWYRQAPGKERELVATITRSGTTKYADSVKGRFTISRDNAKNTVYLQMNSLKPEDTAVYYCNSDTYFPLYDYWGQGTQVTVSS” the “polyreactivity (PSR sort gate)” value was “low polyreactivity”.
For “QVQLVESGGGLVQAGGSLRLSCAASGSTSAYYAMGWYRQAPGKERELVAAISWSGGLTYYADSVKGRFTISRDNAKNTVYLQMNSLKPEDTAVYYCAASSYPYGYDYWGQGTQVTVSS”, the “polyreactivity (PSR sort gate)” value was “high polyreactivity”.
For “QVQLVESGGGLVQAGGSLRLSCAASGSTSDSYAMGWYRQAPGKERELVAAISRGTNTYYADSVKGRFTISRDNAKNTVYLQLNRLKPEDTAVYYCNKVQYLRKYWVTPTGQRFGYWGQGTQVTVSS”, the “polyreactivity (PSR sort gate)” value was “high polyreactivity”.
For “QVQLVESGGGLVQAGGSLRLSCAASGSTSDVYAMGWYRQAPGKEREFVAAIRFSGGSTYYADSVKGRFTISRDNAKNTVYLQMNSLKPEDTAVYYCAKRWGIWPRGYYWGQGTQVTVSS”, the “polyreactivity (PSR sort gate)” value was “low polyreactivity”.
For “QVQLVESGGGLVQAGGSLRLSCAASGSTSETYAMGWYRQAPGKERELVAAISGNGASTYYADSVKGRFTISRDNAKNTVYLQMNSLKPDDTAVYYCAAYFYYWGSTFVRYEYWGQGTQVTVSS”, the “polyreactivity (PSR sort gate)” value was “high polyreactivity”.
For “QVQLVESGGGLVQAGGSLRLSCAASGSTSGKNAMGWYRQAPGKERELVAVITYSGSRTYYADSVKGRFTISRDNAKNTVYLQMNSLIPEDTAVYYCAAVGGGVSFRGNYWGQGTQVTVSS”, the “polyreactivity (PSR sort gate)” value was “high polyreactivity”.
In the case of “QVQLVESGGGLVQAGGSLRLSCAASGSTSGKYAMGWYRQAPGKERELVAGITKGGGGTYYADSVKGRFTISRDNAKNTVYLQMNSLKPEDTAVYYCAAGTLYSLYFGRHGYWGQGTQVTVSS”, the “polyreactivity (PSR sort gate)” value is reported as “low polyreactivity”.
With “QVQLVESGGGLVQAGGSLRLSCAASGSTSGLYAMGWYRQAPGKERELVATISLSGGSTYYADSVKGRFTISRDNAKNTVYLQMNSLKPEDTAVYYCNTDKYKWNYGSTYRMDYWGQGTQVTVSS” the “polyreactivity (PSR sort gate)” value was “low polyreactivity”.
With “QVQLVESGGGLVQAGGSLRLSCAASGSTSGSNAMGWYRQAPGKERELVAGISYSTADTNYADSVKGRFTISRDNAKNTVYLQMNSLKPEDTAVYYCATDPFGIASRHDDYWGQGTQVTVSS” the “polyreactivity (PSR sort gate)” value was “low polyreactivity”.
For “QVQLVESGGGLVQAGGSLRLSCAASGSTSGSYGMGWYRQAPGKERELVAAIRISGDSTYYADSVKGRFTISRDNAKNTVYLQMNSLKPEDTAVYYCAAEAFFWYYGWYDYWGQGTQVTVSS”, the “polyreactivity (PSR sort gate)” value was “high polyreactivity”.
For “QVQLVESGGGLVQAGGSLRLSCAASGSTSHQYAMGSYRQAPGKERELVAAISSRAGSTYYADSVKGRFTISRDNAKNTVYLQMNSLKPEDTAVYYCAAEADSWKWGYDYWGQGTQVTVSS”, the “polyreactivity (PSR sort gate)” value was “low polyreactivity”.
For “QVQLVESGGGLVQAGGSLRLSCAASGSTSIYYTMGWYRQAPGKERELVAAITRGGRTYYADSVKGRFTISRDNAKNTVYLQMNSLKPEDTAVYYCAATTYLVWGYNYWGQGTQVTVSS”, the “polyreactivity (PSR sort gate)” value was “low polyreactivity”.
In the case of “QVQLVESGGGLVQAGGSLRLSCAASGSTSKVYAMGWSRQAPGKERELVAAITFSGGSTYADSVKGRFTISRDNAKNTVYLQMNSLKPEDTAVYYCAVEVPYSWWWLVDYWGQGTLVTVSS”, the “polyreactivity (PSR sort gate)” value is reported as “high polyreactivity”.
For “QVQLVESGGGLVQAGGSLRLSCAASGSTSLYYAMGWYRPAPGKEREFVAAITWSGGSTYYADSVKGRFTISRDNAKNTVYLQMNSLKPEDTAVYYCAARSYGYSAGYYWGQGTQVTVSS”, the “polyreactivity (PSR sort gate)” value was “high polyreactivity”.
For “QVQLVESGGGLVQAGGSLRLSCAASGSTSPGYAMGWYRQAPWKERELVAAITFRGTRTYYADSVKGRFTISRDNSKNTVYLQMNSLKPEDTEVYYCNVVGYGPNRGRVDYWGQGTLVTVSS”, the “polyreactivity (PSR sort gate)” value was “high polyreactivity”.
For “QVQLVESGGGLVQAGGSLRLSCAASGSTSQPYDMGWYRQAPGTERELVASITNGGSTNYADSVKGRFTISRDNAKNTVYLQMNSLNPEDTAVDYCATRNGYSGTYGYWGQGTQVTVSS”, the “polyreactivity (PSR sort gate)” value was “low polyreactivity”.
With “QVQLVESGGGLVQAGGSLRLSCAASGSTSQVNDMGWYRQAPGKERELVAAISSTGDRTYYADSVKGRFTISRDNAKNTVYLQMNSLKPEDTAVYYCNADLTSYYEEDERNDDDYWGQGTQVTVSS” the “polyreactivity (PSR sort gate)” value was “low polyreactivity”.
For “QVQLVESGGGLVQAGGSLRLSCAASGSTSRIYGMGWYRQAPGTDRELVAAITRSGNTYADSVKGRFTISRDNANNTDYLQMNSLKPDDTAVYYCATAWRFTYFGYEYWGQGTQVTVSS”, the “polyreactivity (PSR sort gate)” value was “high polyreactivity”.
In the case of “QVQLVESGGGLVQAGGSLRLSCAASGSTSRSAMGWYRQAPGKERELVASITRGGSTYYADSVKGRFTISRDNAKNTVYLQMNSLKPEDTAVYYCAARFPQHNYWAMDYWGQGTQVTVSS”, the “polyreactivity (PSR sort gate)” value is reported as “high polyreactivity”.
For “QVQLVESGGGLVQAGGSLRLSCAASGSTSSYNAMGWYRQAPGKERELVAAINSGDNTYYADSVKGRFTISRDNAKNTVYLQMNSLKPDDTAVYYCNKVTRNFNYDYWGQGTQVTVSS”, the “polyreactivity (PSR sort gate)” value was “low polyreactivity”.
For “QVQLVESGGGLVQAGGSLRLSCAASGSTSVDYTMGWYRQAPGKERELVAAIDYNGDSTYYADSVKGRFTISRDNAKNTVYLQMNSLKPEDTAVYYCAADYLSFVVVKLYGYWGQGTQVTVSS”, the “polyreactivity (PSR sort gate)” value was “low polyreactivity”.
In the case of “QVQLVESGGGLVQAGGSLRLSCAASGSTSVVNPMGWSRPAPGTERELVAAISWSGGSTYYADSVKGRFTISRDNAKNTVYLQMNSLKPEDTAVYYCAKRRVYYGSRYNYWGQGTQVTVSS”, the “polyreactivity (PSR sort gate)” value is reported as “high polyreactivity”.
In the case of “QVQLVESGGGLVQAGGSLRLSCAASGSTSVYAMGWYRQAPGKERELVAAITRGGSTYYADSVKGRFTISRDNAKNTVYLQMNRLKPEDTAVYYCAVETYYSIFDIYDYWGQGTQVTVSS”, the “polyreactivity (PSR sort gate)” value is reported as “low polyreactivity”.
In the case of “QVQLVESGGGLVQAGGSLRLSCAASGSTSWIYAMGWYRQAPGKERELVAAISGRDGSTNYADSVKGRFTISRDNAKNTVYLQMNSLKPEDTAVYYCNATGRRFNRYGGDYWGQGTQVTVSS”, the “polyreactivity (PSR sort gate)” value is reported as “high polyreactivity”.
In the case of “QVQLVESGGGLVQAGGSLRLSCAASGSTSWIYAMGWYRQAPGQERELVAAISGRDGSTNYADSVKGRFTISRDNAKNTVYLQMNSLKPEDTAVYYCASYLYKSRYLPEYDYWGQGTQVTVSS”, the “polyreactivity (PSR sort gate)” value is reported as “high polyreactivity”.
In the case of “QVQLVESGGGLVQAGGSLRLSCAASGSTSYDYAMGWYRQAPGKERELVAAISRRGGSTYYADSVKGRFTISRDNAKNTVYLQMNSLKPEDTAVYYCAARSYSYLGWFSYDYWGQGTQVTVSS”, the “polyreactivity (PSR sort gate)” value is reported as “low polyreactivity”.
With “QVQLVESGGGLVQAGGSLRLSCAASGSTSYVYATGGYRQAPGKERELVAAISGSGGRTYYADSVKGRFTISRDNAKNTVYLQMNSLKPEDTAVYYCNALPRPSYPFDYWGQGTQVTVSS” the “polyreactivity (PSR sort gate)” value was “high polyreactivity”.
In the case of “QVQLVESGGGLVQAGGSLRLSCAASGSTSYYYAMGWYRQAPGKERELVAAITTSGGSTYYADSVKGRFTISRDNAKNTVYLQMNSLKPEDTAVYYCATGYLYFTSYRYNYWGQGTQVTVSS”, the “polyreactivity (PSR sort gate)” value is reported as “low polyreactivity”.
With “QVQLVESGGGLVQAGGSLRLSCAASGSTVYVYTMGGYRQAPGKERELVAANSLSGDNTYYADSVKGRFTISRDNAKNTVYLQKNSLKPEATAVYYCNADIIGFPADYLYDYWGQGTQVTVSS” the “polyreactivity (PSR sort gate)” value was “low polyreactivity”.
In the case of “QVQLVESGGGLVQAGGSLRLSCAASGSTVYYNAMGWYRQAPGKERELVADISWRGGITYYADSVKGRFTISRDNAKNTVYLQMNSLKPAETAVYYCNADAESFDDGYWGQGTQVTVSS”, the “polyreactivity (PSR sort gate)” value is reported as “low polyreactivity”.
With “QVQLVESGGGLVQAGGSLRLSCAASGSTWNRNPMGWYRQAPGKERELVAAISWRGDSTSYADSVKGRFTISRDNAKNTVYLQMNSLKPEDTAVYYCATAHDYAFYRYWYVPSEYNYWGQGTQVTVSS” the “polyreactivity (PSR sort gate)” value was “low polyreactivity”.
In the case of “QVQLVESGGGLVQAGGSLRLSCAASGSTYAGNAIGWSRQAPRKERELVAAIDSSTGSTYYADSVKGRFTISRDNAKNTVYLQMNSLNPEDTAVYYCNKTSFLVKLDYWGQGTQVTVSS”, the “polyreactivity (PSR sort gate)” value is reported as “low polyreactivity”.
In the case of “QVQLVESGGGLVQAGGSLRLSCAASGSTYAIYAMGSYRQAPGKERELVASISGGSTNYADSVKGRFTISRDNAKNTVYLQMNSLKPEDTAVYYCAARGALHHWYRYDYWGQGTQVTVSS”, the “polyreactivity (PSR sort gate)” value is reported as “low polyreactivity”.
With “QVQLVESGGGLVQAGGSLRLSCAASGSTYGYTMGWYRQAPGKERELVADITSGGTTNYADSVKGRFTISRDNAKNTVYLQMNSLKPEDTAVYYCATRGAEWGWLGSIFNPFDYWGQGTQVTVSS” the “polyreactivity (PSR sort gate)” value was “low polyreactivity”.
For “QVQLVESGGGLVQAGGSLRLSCAASGSTYRIYAMGWYRQAPGKERELVAAITRSGGSTYYADSVKGRFTISRDNAKNTVYLQMNSMKPEDTAVYYCNRRGAYPAKYDYWGQGTQVTVSS”, the “polyreactivity (PSR sort gate)” value was “high polyreactivity”.
For “QVQLVESGGGLVQAGGSLRLSCAASGSTYRTYPMGWYRQAPGKERELVASISYRSGRTYYADSVKGRFTISRDNAKNTVYLPMNSLKPEDTAVYYCNSRMYGVISRMDYWGQGTQVTVSS”, the “polyreactivity (PSR sort gate)” value was “high polyreactivity”.
With “QVQLVESGGGLVQAGGSLRLSCAASGSTYSYYAMGWYRQAPGKERELVAAITTSGGRTYYADSVKGRFTISRDNAKNTVYLQMNSLKPEDTAVYYCNARRHWYSAWGYDYWGQGTQVTVSS” the “polyreactivity (PSR sort gate)” value was “high polyreactivity”.
